{"source": "patent US20210389324", "key": {"[1]": {"system": "CFP-FOXP3-YFP (18-residue)"}, "[2]": {"system": "CFP-MYH6/7-YFP (23-residue)"}, "[3]": {"system": "CFP-FOXP3-YFP (25-residue)"}, "[4]": {"system": "CFP-MYH6/7-YFP (16-residue)"}, "[5]": {"system": "CFP-PROS1-YFP"}, "[6]": {"system": "CFP-V34-YFP"}, "[7]": {"system": "CFP-SFVp12-YFP 19:6"}, "[8]": {"system": "CFP-VEEVnsP23-YFP"}, "[9]": {"system": "CFP-TRIM14-YFP 19-residue substrate"}, "[10]": {"system": "CFP-SFVp12-YFP 11:6"}, "[11]": {"system": "CFP-TRIM14-YFP 22-residue substrate"}}, "data": [{"substance": "Recombinant MERS-CoV-2 Papain-like Protease", "values": [{"measurement": "cleavage of CFP-YFP substrate", "setting": "[1]", "result": "SARS-CoV-2, MERS PLpro"}, {"measurement": "cleavage of CFP-YFP substrate", "setting": "[2]", "result": "SARS-CoV-2, MERS PLpro"}, {"measurement": "cleavage of CFP-YFP substrate", "setting": "[3]", "result": "SARS-CoV-2, MERS PLpro"}, {"measurement": "cleavage of CFP-YFP substrate", "setting": "[4]", "result": "SARS-CoV-2, MERS PLpro"}, {"measurement": "cleavage of CFP-YFP substrate", "setting": "[5]", "result": "SARS-CoV-2, MERS PLpro"}]}, {"substance": "Recombinant VEEV nsP2-thioredoxin Protease containing residues 457-792", "values": [{"measurement": "Km", "setting": "[6]", "result": 21, "unit": "µM"}, {"measurement": "Vmax", "setting": "[6]", "result": 0.089, "unit": "U/mg"}, {"measurement": "cleavage of CFP-YFP substrate", "setting": "[6]", "result": "VEEV nsP2 cysteine protease"}, {"measurement": "cleavage of CFP-YFP substrate", "setting": "[7]", "result": "CHIKV and VEEV nsP2 cysteine protease"}, {"measurement": "cleavage of CFP-YFP substrate", "setting": "[8]", "result": "VEEV nsP2 cysteine protease"}, {"measurement": "Km", "setting": "[9]", "result": 50, "unit": "µM"}, {"measurement": "Vmax", "setting": "[9]", "result": 0.012, "unit": "U/mg"}, {"measurement": "cleavage of CFP-YFP substrate", "setting": "[9]", "result": "VEEV nsP2 cysteine protease"}, {"measurement": "cleavage of CFP-YFP substrate", "setting": "[10]", "result": "CHIKV and VEEV nsP2 cysteine protease"}, {"measurement": "Km", "setting": "[11]", "result": 26, "unit": "µM"}, {"measurement": "Vmax", "setting": "[11]", "result": 0.008, "unit": "U/mg"}, {"measurement": "cleavage of CFP-YFP substrate", "setting": "[11]", "result": "VEEV nsP2 cysteine protease"}]}]}
